Measurements: the nanobody polyreactivity screen of Harvey et al. (2022)

Assay: yeast display, Sf9 membrane polyspecificity reagent, FACS + sequencing; frameworks hold sequencing errors
How it was run: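 Galactose induction of a Saccharomyces cerevisiae BJ5465 synthetic nanobody display library ran 36–48 hours. The cells were then stained for 1 hour at 4 °C with 10% biotinylated, detergent-solubilized Sf9 membrane reagent, pulled down on streptavidin microbeads and FACS-sorted into low and high (top ~1%) gates on expression and reagent-binding fluorescence. Labels for polyreactivity follow the gate of origin.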

Sequence	polyreactivity (PSR sort gate)
QGQRVESGGGLVQAGGSLRLSCAASGRIFRGYDMGWYRQSPGKERELVAAISGSGGSTYYADSVKGRFTISRDYAKNSVYLQMNSLQPEDTAVYYCAADQQSTGDWAGDYWGQGTQVTVSS	low polyreactivity
QVQLVESGGGLVQAGGSLRLSCAASGRIFHYYAMGWYRQAPGKERELVADSSWSGGRTYYADSVKGRFTISRDNAKNTVYLQMNSLKPEDTAVYYCAAGHSYRPYYYYGEYDYWGQGTQVTVSS	high polyreactivity
QVQLVASGGGLVQAGGSLRLSCAASGFIFWYYAMGWYRQAPGKERELVATITSGGSTTYADSVKGRFTISRDNAKNTVYLQMYSLKPEDTAVYYCAAKGISRYDWGQGTQVTVSS	low polyreactivity
QVQLVESGGGLVQAGGSLRLSCAASGLTFPFYTMGWYRQAPGKERELVAAISRRGGSTYYADSVKGRFTISRDNAKNTVYLQLNSLKPEDTAVYYCAADKYSWYDYWGQGTQVTVSS	low polyreactivity
QVQLVQSGGGLVQAGGSLRLSCAASGRTFRIYAMGWYRQAPWKEREFVAGITRSDGSTYYADSVKGRFTISRDNAKNTVYLQMISLKPEDTAVYYCNVEPYSHYRSTEDYWGQGTQVTVSS	high polyreactivity
QVQLVESGGGLVQAGGSLRLSCAASGRTFNSYAMGWYRQAPGKERELVAAISRRGGSTYYADSVKGRFTISRDNAKNTVYLQMNSLKPEDTAVYYCASTIVQYISRMDYWGQGTQVTVSS	high polyreactivity
KVQLVESGGGLFQAGGSLSLSCAATGSSYGGYVMGWYRQAPGKERELVASISGNGASTTYADSVKGRFTISRDNAKNTVYLQMNSLKQEDTAVYYCNARDWYIVWYEYWGQGTQVTVSS	low polyreactivity
QVQLVESGGGLVQAGGSLRLSCAASGNIFTTYAMGWYRQAPGKERELVAAISRSGGRTNYADSVKGRFTISRDNAKNTVYLQLNSLKPEDTAVYYCAADGVPGRAVDYEYWGQGTQVTVSS	high polyreactivity
QVQLVESGGGLVQAGGSLRLSCAASGRIFGRYAMGWYRQAPGKDRELVAAISSRGSRTYYADSVKGRFTISRDNAKNTVYLQMNSLKPEVTAVYYCAASWLSYPSDYDYWGQGTQVTVSS	high polyreactivity
QVQLVESGGGLVQAGGSLRLSCAATGFIFFYYAMGWYRQAPGKERELFAVIDRSGGTTYYADSVKGRFTISRDNAKNTVYLQMNSLKPEDTAVYYCNADDFTYPSGWGFIYDYWGQGTQVTVSS	low polyreactivity
QVQLVESGGGLVQAGGSLRLSCAASGSTFVDNAMGWYRQAPGKERELVASITYRGGSTYYADSVKGRFTISRDNAKNTVYLQMNSLKPEDTAVYYCAKGHYFKYDYWGQGTQVTVSS	low polyreactivity
QVQLEESVGGLVQAGGSLRLSCAASVFIFYKKNMGLYRQAPGKERELVAAITDGDHTNYADSVKGRFTISRDNAKNTVYLQMNSLKPEDTAVYYCAADYAWNYAFGYWGQGTQVTVSS	low polyreactivity
QVHLVESGGGLVQAGGSLRLSCAASGSTFGSNAMGWYRQAPGKERELVAAIRGIVGSKYYADSVKGRFTISRDNAKNTVYLLMNSLKPEDTAVYYCAADIDFERDRYVYWGQGTQVTVSS	low polyreactivity
QVQLVESGGGLVQAGGSLRLSCAASGFIFASNTMGWYRQAPGKERELVAAISSRGGRTYYAASVKGRFTISRDNAKNTVYLQMNSLKPEDTAVYYCAAVQKGDSTLLRTKGGYWGQGTQVTVSS	high polyreactivity
QVQLVESGGGLVQAGGRLRLSCAASGSTFWSKVMGWYRQAPGKERELVSAISYGGVTTSYADSVKGRFTISRDNAKNTVYLQMTSLKPEDTAVYYCATDYVGYYFYESDYWGQGTQVTVSS	low polyreactivity
QVKLVESGGGLVQAGGSLRLSCAASGSTFLIYAMGWYRQAPGKERELVAAITVSGGDTYYADSVKGRFTISRDNAKNTVYLQMNSLKPEDTAVYYCAAEGGNDYSSVDAGISYDYWGQGTQVTVSS	low polyreactivity
QVLLQESGGALVQAGGSLRLSCAASGTISTDIRMGWYRLAPGKEPEFVASIDGCSTTYYADSVKVRFTISRDNEKNTVYLQMNSLKPEDTAMYYCAAREATEFYLYYWGQGTQVTVSS	low polyreactivity
QVQLVESWGGLVQAGGSLRLSCASSGITFSPYALGWYRQAPGKERELVAAISSRGGSTYYADSVKGRFTISRDNAKNTVYFQMNSLKPEDTAVFYCNALTFVRYLFHYTYWGQGTQVTVSS	high polyreactivity
QVHLVESGGGLVQAGGSLRLSCAASGRIYTGNTMVWYRQAPGKEREFVAAISGSGGRTFYADSVKGRFTISRDNEKNTVYLQMNSLKPEDTAVYYCAARRYRSLGSYGTGSFSYNYWGQGTQVTVSS	high polyreactivity
QVQLVESGGGLVQAGVSLRLSCAASGRIFYAYAMGWYRKAPGKERELVAAISSSGRTYYADSVKGRLTISRDNAKNTVYLQMNSLKPEDTAVYYCAVDWSRQAHKFNYWGQGTQVTVSS	high polyreactivity
QVQLVESGGGLVQAGGSLRLSCAASGFTFDNYAMGWYRQAPGKERELVAAINWSGGRTYYADSVKGRFTISRDNAKNTVYLQMNSLKPEDTAVYYCAVPGYVRMDYWGQGTQVTVSS	high polyreactivity
QVQLVESGGGLVQAGGSLRLSCAASGSIFIYYAMGWYRQAPGKEREFVAAISTSTADTYYADSVKGRFTISRDNAKNTVYLQMNSLKPEDTAVYYCAAECRPKWYYWAEGYYWGQGTQVTVSS	high polyreactivity
